Non-standard residues stand in square brackets, D forms with d. No end group written: not given here. pS = N[C@@H](COP(=O)(O)O)C(=O)O
Columns and labels:
[1] = target: T1, GABARAP protein (recombinant) (UniProt O95166 1-117); test: ITC; peptides at 0.35 mM titrated into 0.015 mM LC3 and GABARAP proteins in 21 steps; MicroCal VP-ITC; 25 °C and 35 °C (the LC3B titrations of Fig. 4a at 35 °C); 50 mM Na2HPO4, 100 mM NaCl, pH 7.0; one-site binding model; conditions: both partners purified
T1 construct: GABARAP, one of the six mATG8 proteins; CSPs were mapped on PDB 1GNU; source: unlabelled or 15N-labelled

[2] = target: LC3B protein (recombinant) (UniProt Q9GZQ8 1-120); test: as above; conditions: both partners purified

T1 sequence (O95166 whole entry): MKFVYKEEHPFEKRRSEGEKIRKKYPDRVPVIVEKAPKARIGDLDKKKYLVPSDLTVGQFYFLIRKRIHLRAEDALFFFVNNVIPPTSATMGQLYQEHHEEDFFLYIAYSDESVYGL

Binder | Kd [1] [µM] | Kd [2] [µM]
EALN[pS]GVEYYWDQLNET (limits counted from S1014 as the fifth letter; also called S1014-phosphorylated AMBRA1-LIR peptide; source: synthetic peptide, bought: GenScript) [AMBRA1-LIR peptide, S1014 phosphorylated (P1)] | 21 | 53
EALNSGVEYYWDQLNET (limits counted from S1014 as the fifth letter; also called unmodified AMBRA1-LIR; source: synthetic peptide, bought: GenScript) [AMBRA1-LIR peptide, unphosphorylated (P0)] | ~40 | > 100

Source: article PMC6138665, “HUWE1 E3 ligase promotes PINK1/PARKIN-independent mitophagy by regulating AMBRA1 activation via IKKα” (Nature Communications, 2018)
